Laboratory results as given in PMC13364712, “Evolutionarily conserved short linear motifs drive actin filament binding” (Nature Cell Biology, 2026).

Target: actin filaments (actin from Gallus gallus skeletal muscle) (Gallus gallus (chicken), UniProt P68139 1-377)
Test: co-sedimentation; 4 µM EGFP–SFM peptide with 0–200 µM actin filaments in F buffer, 1 h at room temperature, 100,000g for 30 min; pellet read by anti-EGFP western blot; one-site specific binding fit; apparent
Conditions: both partners purified

Kd: 6 µM
B1: EGFP-tagged ESPNL SFM peptide (peptide)
chain: IQEWGVSVRTLRGNFESASGPLC
modifications: Limits from translated primers P11/P12 (7 residues either side of SFM 652-660). Construct also has an initiator Met before the peptide and a C-terminal linker-EGFP-TEV-His, left out.
